Data taken from the supplement of paper PMC9112550, “Optimization of the antimicrobial peptide Bac7 by deep mutational scanning” (BMC Biology, 2022).

Tested on: Escherichia coli TOP10
Experiment: shrunken log2 fold change of peptide-encoding DNA abundance (4.5 h post-induction vs induction); higher = less antimicrobial activity (less host growth inhibition)
Conditions: time post-induction: 4.5 h; library: site-saturation at positions 5, 18, 19, 20
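Also: peptides expressed intracellularly from a pBAD plasmid library in pooled LB shake-flask culture, induced with 0.3% L-arabinose, DNA abundance read by NGS, three biological replicates, DESeq2 with apeglm shrinkage.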

| Sequence | shrunken log2 fold change |
| --- | --- |
| RRIRGRPPRLPRPRPRPAVRPRP | 0.312 |
| RRIRMRPPRLPRPRPRPWVNPRP | 0.0668 |
| RRIRERPPRLPRPRPRPRTLPRP | -0.17 |
| RRIRCRPPRLPRPRPRPMLYPRP | -0.189 |
| RRIRNRPPRLPRPRPRPTHCPRP | 0.085 |
| RRIRSRPPRLPRPRPRPMWTPRP | -0.0682 |
| RRIRQRPPRLPRPRPRPTYLPRP | -0.562 |
| RRIRVRPPRLPRPRPRPHSIPRP | -0.155 |
| RRIRNRPPRLPRPRPRPEGCPRP | -0.0205 |
| RRIRRRPPRLPRPRPRPVHFPRP | -0.278 |
| RRIRVRPPRLPRPRPRPAISPRP | -0.122 |
| RRIRKRPPRLPRPRPRPPKLPRP | 0.658 |
| RRIRQRPPRLPRPRPRPCSCPRP | 0.0297 |
| RRIRRRPPRLPRPRPRPHAIPRP | -0.042 |
| RRIRKRPPRLPRPRPRPDTNPRP | 0.335 |
| RRIRSRPPRLPRPRPRPWVMPRP | -0.0894 |
| RRIRGRPPRLPRPRPRPLGQPRP | 0.756 |
| RRIRDRPPRLPRPRPRPCLVPRP | 0.148 |
| RRIRCRPPRLPRPRPRPVPMPRP | 0.998 |
| RRIRPRPPRLPRPRPRPYAKPRP | 0.258 |
| RRIRNRPPRLPRPRPRPYSCPRP | -1.1 |
| RRIRYRPPRLPRPRPRPVKFPRP | -0.133 |
| RRIRFRPPRLPRPRPRPWTYPRP | -0.0132 |
| RRIRGRPPRLPRPRPRPWIHPRP | 0.0779 |
| RRIRSRPPRLPRPRPRPVFCPRP | -0.024 |

| Sequence | shrunken log2 fold change |
| --- | --- |
| RRIRERPPRLPRPRPRPWSCPRP | -0.11 |
| RRIRTRPPRLPRPRPRPWSTPRP | -0.14 |
| RRIRMRPPRLPRPRPRPMTAPRP | 0.198 |
| RRIRHRPPRLPRPRPRPQVIPRP | -0.0106 |
| RRIRERPPRLPRPRPRPHQNPRP | 0.0506 |
| RRIRGRPPRLPRPRPRPFWDPRP | 0.322 |
| RRIRDRPPRLPRPRPRPGGGPRP | 1.08 |
| RRIRQRPPRLPRPRPRPAKTPRP | -0.0724 |
| RRIRYRPPRLPRPRPRPVPFPRP | -0.348 |
| RRIRARPPRLPRPRPRPMYNPRP | -0.48 |
| RRIRLRPPRLPRPRPRPCAFPRP | -0.295 |
| RRIRCRPPRLPRPRPRPCDMPRP | -0.277 |
| RRIRVRPPRLPRPRPRPRWAPRP | 0.343 |
| RRIRTRPPRLPRPRPRPIICPRP | -0.121 |
| RRIRERPPRLPRPRPRPTNNPRP | -0.591 |
| RRIRGRPPRLPRPRPRPDSPPRP | 0.136 |
| RRIRIRPPRLPRPRPRPPNLPRP | -0.188 |
| RRIRARPPRLPRPRPRPADMPRP | 0.194 |
| RRIRCRPPRLPRPRPRPLNMPRP | -0.646 |
| RRIRRRPPRLPRPRPRPYSMPRP | -1.39 |
| RRIRHRPPRLPRPRPRPNAAPRP | 0.299 |
| RRIRTRPPRLPRPRPRPYGEPRP | -0.074 |
| RRIRSRPPRLPRPRPRPKTVPRP | 0.0369 |
| RRIRWRPPRLPRPRPRPLLNPRP | 0.00531 |
| RRIRFRPPRLPRPRPRPWDPPRP | -0.78 |

| Sequence | shrunken log2 fold change |
| --- | --- |
| RRIRYRPPRLPRPRPRPWHLPRP | -0.0873 |
| RRIRKRPPRLPRPRPRPGGVPRP | 0.656 |
| RRIRSRPPRLPRPRPRPKPKPRP | 0.545 |
| RRIRTRPPRLPRPRPRPLEQPRP | -0.102 |
| RRIRCRPPRLPRPRPRPTWRPRP | 1.4 |
| RRIRCRPPRLPRPRPRPLDTPRP | -0.153 |
| RRIRVRPPRLPRPRPRPAHPPRP | 0.0808 |
| RRIRLRPPRLPRPRPRPTQRPRP | 0.248 |
| RRIRRRPPRLPRPRPRPIVEPRP | 0.136 |
| RRIRCRPPRLPRPRPRPKTRPRP | 0.305 |
| RRIRPRPPRLPRPRPRPLAHPRP | 0.183 |
| RRIRMRPPRLPRPRPRPVYAPRP | 0.243 |
| RRIRSRPPRLPRPRPRPVEMPRP | 0.0369 |
| RRIRSRPPRLPRPRPRPSCKPRP | -0.797 |
| RRIRARPPRLPRPRPRPNWEPRP | -0.0132 |
| RRIRKRPPRLPRPRPRPWYSPRP | -0.234 |
| RRIRFRPPRLPRPRPRPCYPPRP | -0.451 |
| RRIRNRPPRLPRPRPRPVIFPRP | -0.565 |
| RRIRERPPRLPRPRPRPREGPRP | 0.46 |
| RRIRERPPRLPRPRPRPHARPRP | 0.198 |
| RRIRERPPRLPRPRPRPQVAPRP | -0.366 |
| RRIRSRPPRLPRPRPRPFKTPRP | -0.0323 |
| RRIRFRPPRLPRPRPRPTFVPRP | -0.051 |
| RRIRVRPPRLPRPRPRPMWYPRP | -0.62 |
| RRIRGRPPRLPRPRPRPEHAPRP | 2.78 |

| Sequence | shrunken log2 fold change |
| --- | --- |
| RRIRIRPPRLPRPRPRPIDTPRP | -0.00177 |
| RRIRSRPPRLPRPRPRPYSYPRP | -0.393 |
| RRIRCRPPRLPRPRPRPWVQPRP | -0.391 |
| RRIRLRPPRLPRPRPRPMMDPRP | -0.0843 |
| RRIRHRPPRLPRPRPRPLNFPRP | -0.0479 |
| RRIRHRPPRLPRPRPRPQWPPRP | 0.112 |
| RRIRERPPRLPRPRPRPYGKPRP | -0.00133 |
| RRIRPRPPRLPRPRPRPETMPRP | 0.00383 |
| RRIRFRPPRLPRPRPRPEQVPRP | 0.0138 |
| RRIRMRPPRLPRPRPRPYATPRP | -0.0602 |
| RRIRFRPPRLPRPRPRPWQMPRP | 0.053 |
| RRIRQRPPRLPRPRPRPLIFPRP | -0.432 |
| RRIRNRPPRLPRPRPRPWDDPRP | 0.0288 |
| RRIRHRPPRLPRPRPRPYYMPRP | -0.636 |
| RRIRMRPPRLPRPRPRPDHFPRP | -0.0876 |
| RRIRSRPPRLPRPRPRPVSQPRP | -0.0165 |
| RRIRSRPPRLPRPRPRPYIMPRP | -0.845 |
| RRIRQRPPRLPRPRPRPDENPRP | 0.106 |
| RRIRGRPPRLPRPRPRPPCAPRP | 0.978 |
| RRIRERPPRLPRPRPRPCWRPRP | 0.27 |
| RRIRARPPRLPRPRPRPTMRPRP | 0.976 |
| RRIRYRPPRLPRPRPRPIVWPRP | 0.0267 |
| RRIRHRPPRLPRPRPRPQTNPRP | -0.633 |
| RRIRARPPRLPRPRPRPPLDPRP | 1 |
| RRIRCRPPRLPRPRPRPASWPRP | 0.219 |

| Sequence | shrunken log2 fold change |
| --- | --- |
| RRIRKRPPRLPRPRPRPFYEPRP | 0.0368 |
| RRIRFRPPRLPRPRPRPDDWPRP | 0.044 |
| RRIRTRPPRLPRPRPRPCYMPRP | -0.156 |
| RRIRLRPPRLPRPRPRPNRMPRP | 1.82 |
| RRIRERPPRLPRPRPRPPHWPRP | 0.223 |
| RRIRTRPPRLPRPRPRPFLIPRP | -0.378 |
| RRIRCRPPRLPRPRPRPHIYPRP | -0.954 |
| RRIRMRPPRLPRPRPRPWIKPRP | 0.101 |
| RRIRLRPPRLPRPRPRPDCHPRP | 0.092 |
| RRIRGRPPRLPRPRPRPQYLPRP | 0.0284 |
| RRIRHRPPRLPRPRPRPSQAPRP | -0.142 |
| RRIRFRPPRLPRPRPRPRACPRP | 0.165 |
| RRIRFRPPRLPRPRPRPSFRPRP | -0.433 |
| RRIRVRPPRLPRPRPRPLTCPRP | -0.187 |
| RRIRLRPPRLPRPRPRPEPWPRP | 0.222 |
| RRIRWRPPRLPRPRPRPYMSPRP | -0.212 |
| RRIRRRPPRLPRPRPRPNCSPRP | 0.198 |
| RRIRERPPRLPRPRPRPDCDPRP | -0.121 |
| RRIRKRPPRLPRPRPRPYENPRP | -0.517 |
| RRIRMRPPRLPRPRPRPLFFPRP | 0.135 |
| RRIRWRPPRLPRPRPRPGHGPRP | 0.214 |
| RRIRDRPPRLPRPRPRPLTSPRP | 0.109 |
| RRIRLRPPRLPRPRPRPQEPPRP | -0.0198 |
| RRIRKRPPRLPRPRPRPIAIPRP | -0.282 |
| RRIRTRPPRLPRPRPRPMLVPRP | -0.000238 |
